The test system of assay [1] is normal tau in brain sections from healthy control subjects (prefrontal cortex). Briefly: Immunohistochemistry, healthy control brain sections. The assay is classed as binding, human. The note with it: C5.2 at 0.1 to 1 μg/mL, overnight 4 °C, paraffin sections. How it is done:
(§1) Paraffin sections of 4 μm thickness were prepared from blocks of PFA-fixed prefrontal cortex from AD donors and non-demented controls obtained from Tissue Solutions (Glasgow, UK). The sections were deparaffinised, rehydrated and subjected to antigen retrieval by boiling in 10 mM citrate buffer pH 6 for 5 min. Endogenous peroxidase was quenched for 10 min with 1% H2O2 in PBS. Sections were then incubated 20 min in blocking buffer followed by overnight incubation in a humidified chamber at 4 °C with primary antibody at 0.1 to 1 μg/mL in incubation buffer. Between each incubation step, the sections were washed 3 × 10 min in wash buffer. Subsequently, the sections were incubated at room temperature in the following solutions; 60 min with a biotinylated secondary Ab diluted 1:200 in wash buffer; 60 min in ABC; 20 min in DAB. Finally, the sections were counterstained with hematoxylin and coverslipped.

Assay [2] concerns the target FITC-conjugated tau peptide pS396/pS404. In words: Fluorescence polarization direct binding, pS396/pS404 peptide. The note with it: restated in Discussion; fluorescence polarization, Fab C5.2. How it is done:
FITC-labeled peptides used in fluorescence polarization experiments were synthesized by Biomatik (Cambridge, ON, Canada). Fab C5.2 affinity was determined using a fluorescence polarization-based direct binding assay with fluorescein isothiocyanate (FITC)-conjugated peptides (Table 1). The FITC-peptide concentration was kept constant at 300 nM while Fab C5.2 was serially diluted from 675 nM to 0.08 nM. Data was collected at 25 °C using excitation and emission wavelengths of 485 nm and 535 nm, respectively. Each experiment was done in a single 96-well plate and calculated in triplicate (buffer: 50 mM Tris, 100 mM NaCl, 0.1% pluronic F-127). The experiments were performed with a DTX 880 Multimode Detector (Beckman Coulter, Jersey City, NJ). Fluorescence data was reduced using multimode detection software and KD values were calculated in GraphPad Prism 7.0 using a nonlinear regression model.
To accurately measure the C5.2 binding affinity, we performed fluorescence polarization experiments to determine dissociation constants (KD), using the Fab C5.2 and four differentially phosphorylated FITC-conjugated peptides (Table 1). The peptide concentration was kept constant while that of Fab C5.2 was serially diluted from 675 nM to 0.08 nM (Fig. 1d). […] In comparison with a […] IgG molecule, each Fab fragment contains a single binding site so the KD was calculated using a nonlinear model.

Assay [3] has as its system normal tau in the soluble tau fraction (S1) from non-transgenic littermates. In words: Western and dot blot, non-transgenic littermate brain. The note with it: C5.2 1 µg/mL overnight 4 °C, 24 weeks old non-tg mice. The format is binding, mouse. The text has this:
(§2) rTg4510, tTA and non-Tg littermate F1 mice were bred at Taconic, Denmark. Mice expressing the tTA activator transgenes were maintained on 129S6 background strain (Taconic) and mutant tau responder mice were maintained in the FVB/NCrl background strain (Taconic). Mice were screened by PCR using the following primer pairs [NT] and [NT] for the tTA activator transgene and [NT] and [NT] for the mutant tau responder transgene. rTg4510, tTA and non-Tg littermates were group-housed (5 animals/cage) and received water and food ad libitum (Brogaarden, Denmark) as well as environmental enrichment. The light/dark cycle was 12 hours; room temperature was 21 ± 2 °C and a relative humidity of 55% ± 5%. All animal experiments were performed in accordance with the European Communities Council Directive #86/609, the directives of the Danish National Committee on Animal Research Ethics, and Danish legislation on experimental animals (license no. 2014-15-0201-00339). Mice were euthanized by cervical dislocation. Brains were quickly removed, weighed and divided sagittally down the midline to yield two hemispheres. […] Tau and pTau levels were assessed in the samples using 1 μg/mL C5.2 overnight at 4 °C. A secondary fluorophore conjugated IgG antibody was used (IRDye 680 Goat anti-mouse, LICOR biosciences) and the signal was quantified using Odyssey CLx and Image studio software (LI-COR biosciences). […]

The subject of assay [4] is tau in brain fractions of rTg4510 mice overexpressing human tau with P301L mutation. In words: Western and dot blot, rTg4510 mouse brain. The assay is classed as binding, human tau in rTg4510 mouse. Particulars: C5.2 1 µg/mL overnight 4 °C, 24 weeks old mice.
Description: as §2

The subject of assay [5] is tau pathology in Alzheimer's disease brain sections (prefrontal cortex). Briefly: Immunohistochemistry, Alzheimer's disease brain sections. The assay is classed as binding, human. Particulars: C5.2 at 0.1 to 1 μg/mL, overnight 4 °C, paraffin sections. How it is done: as §1

B1: C5.2: novel mouse monoclonal antibody that targets the pS396 tau epitope region (antibody, V domains shown)
VH: QVQLQQSDAELVKPGASVKISCKASGYTFTDRTIHWVKQRPEQGLEWIGYIYPGDDSTKYNDMFKAKATLTADKSSNTAYMQLNSLTSDDSAVYFCARRGTMDYWGQGTSVTVSS
VL: DVQMIQSPSSLSASLGDIVTMTCQASQDTSINLNWFQQKPGKAPKLLIYGASNLEDGVPSRFSGSRYGTDFTLTISSLEDEDMATYFCLQHTYLPFTFGSGTKLEIK
As to B1, the “Binding to normal tau in brain sections” value in assay [1] is “does not bind to normal tau”. Besides, in assay [2], binding was characterised by a dissociation constant (Kd) of 15.4 nM. In assay [3], the “Detection of normal tau (S1)” value was “not detected”. Further, the “Binding to insoluble tau fraction (P3)” value in assay [4] (sarkosyl-insoluble P3) is given as “binds predominantly to an insoluble tau fraction (P3)”. Also, the “Reactivity to soluble tau fraction (S1)” value in assay [4] (soluble S1) is recorded as “also has reactivity to a soluble tau fraction (S1)”. In addition, the “Binding in AD brain sections” value in assay [5] was “binds strongly to tangles, pre-tangles and dystrophic neurites”.

These data come from article PMC5906480, “Tau Antibody Structure Reveals a Molecular Switch Defining a Pathological Conformation of the Tau Protein” (Scientific Reports, 2018).
